# Test results reported in US20180185504A1 (Regeneron, published 2018).
# B1: H1H6795P (antibody, human IgG1, V domains shown)
# VH: QVQLVQSGAEVKKPGASVKVSCKASGYTFGTSGITWVRQAPGQGLEWMGWSSAYNGKTDYAQKFQDRVTMTTDTSTTTGYMEMRSLTSDDTAVYYCTTVVRRPFDFWGQGTLVTVSS
# VL: DIQMTQSPSSLSASVGDRVTITCRASQDINNFLAWFQQKPGKAPKSLIYAASSLQSGVPSKFSGGGSGTDFALTISSLQPEDFATYYCQQYSSYPITFGQGTRLEIK
# notes: human IgG1 Fc (H1H)
# B2: H1H6967N (antibody, human IgG1, V domains shown)
# VH: EVQLVESGGDLVHPGRSLRLSCAASGFPFDEYAMHWVRQVPGKGLEWVSGISWSNNNIGYADSVKGRFTISRDNAKNSLYLQMNSLRPEDTAFYYCAKSGIFDSWGQGTLVTVSS
# VL: EIVMTQSPATLSVSPGERATLSCRASQSVSRDLAWYQQKPGQAPRLLIHGASTRATGIPARFSGSGSGAEFTLIISSLQSEDFAVYYCQQYNNWPLTFGGGTKVEIK
# notes: also called H2M6967N
# B3: H1H6774P (antibody, human IgG1, V domains shown)
# VH: EVQLVESGGGLAQPGGSLRLSCVASGFTFSTYWMSWVRQAPGKGLDWVGNIKQDGSEQNYVDSVRGRFTISRDNAKNSLFLQMNSLRAEDTGVYYCATLLTKGDYWGQGTLVTVSS
# VL: DIQMTQSPSSLSASVGDSVTITCRASQDISNYLDWFQQKPGKAPKSLIYAASILQGGVPSRFSGSGYGTDFTLTISSLQPEDFATYYCRQYKTYPFTFGPGTKVDIK
# notes: human IgG1 Fc (H1H)
# B4: H1H6781P (antibody, human IgG1, V domains shown)
# VH: EVQLVESGGDLVQPGESLRLSCTASGFTFNSYEMNWVRQAPGKGLEWVSYISSSGGTKYYVDSVKGRFTISRDNAKKSLYLQMNSLRADDTALYYCARLNGVDVFDIWGQGTMVTVSS
# VL: DIQMTQSPSSLSASVGDRVTITCRASQDIFNYLAWFQQKPGKVPELLISAASTLQSGVPSRFSGSGSGTYFTLTISSLQPEDIATYYCQRYNSAPLTFGGGTKVEIK
# notes: human IgG1 Fc (H1H)
# B5: H1H6792P (antibody, human IgG1, V domains shown)
# VH: EVQLVESGGGLVQPGRSLRLSCAASGFTLDDHAVHWVRQAPGKGLEWVSGISWNSVYIDYADSVKGRFTIFRDNAKNSLYLQMNSLRAEDTAFYYCARDIEGARDYWGQGTLVTVSS
# VL: DIQMTQSPSSLSASVGDRVTITCRASQGIRNDLGWYQQKPGKAPKRLIYAASSLQSGVPSRFSGSGYGTEFTLTISSLQPEDFAPYYCLQHNSYPLTFGGGTKVEIK
# notes: human IgG1 Fc (H1H)
# B6: H1H6807P (antibody, V domains shown)
# VH: QVQLVESGGGVVQPGRSLRLSCAASGFTFSDYNMHWVRQAPGKGLEWVAVIWYDGSNKHYADSVKGRFTISRDNSKNTLYLQMNSLRAEDTAVYYCARDGFTIFGMVLDYWGQGTLVTVSS
# VL: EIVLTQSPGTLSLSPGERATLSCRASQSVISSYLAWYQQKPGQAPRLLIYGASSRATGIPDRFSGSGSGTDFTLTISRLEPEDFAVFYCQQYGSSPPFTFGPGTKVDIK
# notes: human IgG1 Fc (H1H)
# B7: H1H6953N (antibody, human IgG1, V domains shown)
# VH: EVQLLESGGGLVQPGGTLRLSCAASGFTFSAYAMSWVRQAPGKGLEWVSSINVRAGDTYYADSVKGRFTISRDNSKNTLFLLMNSLRAEDTAAYYCAKARYSSNWGFDFWGQGTLVTVSS
# VL: DIVMTQSPDSLTVSLGARTTINCQSSQTILHSSNNHNYLAWYQQKPGLPPKLLIYWSSTRESGVPDRFSGSGSGTDFTLTISSLQAEDVAIYYCQQYSNTPYTFGQGTKLEIN
# notes: also called H1M6953N
# B8: H1H6958N2 (antibody, human IgG1, V domains shown)
# VH: QVQLVESGGGVVQPGRSLRLSCGASGFTFRNYGMQWVRQGPGKGLEWVTLISFDGNDKYYADSVKGRFTISRDNSKNTLFLQMNSLRTEDTAVYYCARGGDFDYWGQGTLVTVSS
# VL: DIQMTQSPSSLSASVGDRVTITCRASQDIRKDLGWYQQKPGKAPKRLIYAASSLHSGVPSRFSGSGSGTEFTLTISSLQPEDFATYYCLQHNSYPMYTFGQGTKLEIK
# notes: also called H2M6958N2
# B9: H1H6783P (antibody, human IgG1, V domains shown)
# VH: QVQLQQSGPGLVKPSQTLSLTCAISGDSVSSNTFAWNWIRQSPSRGLEWLGRTYYRSKWYIDYAESVKSRITITPDTSKNQFSLQLNSVTPEDTALYYCAGGYTYAPRGAFDIWGQGTMVTVSS
# VL: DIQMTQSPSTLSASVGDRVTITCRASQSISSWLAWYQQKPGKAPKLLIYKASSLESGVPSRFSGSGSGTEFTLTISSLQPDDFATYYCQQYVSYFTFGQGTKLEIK
# notes: human IgG1 Fc (H1H)
# Target: T1, monkey macaca fascicularis PRLR construct with an HA tag on HEK293/mfPRLR cells (macaca fascicularis, UniProt A0A2K5WXK1 25-619)
# T1 construct: stably transfected into HEK293
# T1 sequence: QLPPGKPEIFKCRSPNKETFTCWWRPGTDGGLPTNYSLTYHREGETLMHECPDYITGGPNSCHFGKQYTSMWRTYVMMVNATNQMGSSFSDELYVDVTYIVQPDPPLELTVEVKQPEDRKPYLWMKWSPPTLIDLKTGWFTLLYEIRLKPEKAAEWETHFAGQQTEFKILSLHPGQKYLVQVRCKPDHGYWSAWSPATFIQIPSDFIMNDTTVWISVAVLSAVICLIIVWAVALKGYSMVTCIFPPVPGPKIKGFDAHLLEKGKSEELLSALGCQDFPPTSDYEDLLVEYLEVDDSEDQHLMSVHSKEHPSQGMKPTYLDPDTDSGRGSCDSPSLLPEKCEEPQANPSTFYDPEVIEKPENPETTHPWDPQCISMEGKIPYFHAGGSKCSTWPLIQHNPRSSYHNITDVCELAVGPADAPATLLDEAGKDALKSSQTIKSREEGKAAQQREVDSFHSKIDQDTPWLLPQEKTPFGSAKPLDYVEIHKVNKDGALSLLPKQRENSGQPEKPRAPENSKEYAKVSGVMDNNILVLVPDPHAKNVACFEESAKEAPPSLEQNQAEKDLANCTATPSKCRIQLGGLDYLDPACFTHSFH
# Experiment: FACS on HEK293/mfPRLR cells
row,Binder,FACS Cell Binding (Fold Above Background) [fold]
1,B1,22
2,B2,28
3,B3,29
4,B4,26
5,B5,28
6,B6,27
7,B7,29
8,B8,30
9,B9,27

# Target: T2, human PRLR on cells (endogenous on T47D, T47D#11, MCF7); introduced in HEK293/hPRLR/STAT5-Luc, 293/hPRLR, … (human, UniProt P16471 25-622)
# T2 sequence: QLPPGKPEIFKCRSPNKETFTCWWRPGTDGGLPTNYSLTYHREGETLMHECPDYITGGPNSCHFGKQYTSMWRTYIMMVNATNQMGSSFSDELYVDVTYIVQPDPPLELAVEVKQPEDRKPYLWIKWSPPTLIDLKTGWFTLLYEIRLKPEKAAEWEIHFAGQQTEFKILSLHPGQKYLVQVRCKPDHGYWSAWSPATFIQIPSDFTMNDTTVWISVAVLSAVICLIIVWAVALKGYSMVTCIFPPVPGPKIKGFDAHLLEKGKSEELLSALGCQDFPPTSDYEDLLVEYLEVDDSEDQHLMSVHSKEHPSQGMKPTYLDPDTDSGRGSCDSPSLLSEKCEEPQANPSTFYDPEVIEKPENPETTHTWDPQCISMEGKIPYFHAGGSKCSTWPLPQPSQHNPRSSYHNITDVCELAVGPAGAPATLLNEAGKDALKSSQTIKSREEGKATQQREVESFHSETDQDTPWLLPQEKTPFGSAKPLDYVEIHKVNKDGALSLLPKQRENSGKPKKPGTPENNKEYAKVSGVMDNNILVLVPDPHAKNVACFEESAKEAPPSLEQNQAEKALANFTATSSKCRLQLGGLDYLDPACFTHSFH
# Experiment: cell-based or functional assay
row,Binder,"% Internalization relative to Control I (T47D cells, imaging) [%]"
1,B1,151
2,B2,169
3,B3,162
4,B4,165
5,B5,156
6,B6,147
7,B7,154
8,B8,169
9,B9,161

# Target: T3, human PRLR construct with an HA tag on HEK293/hPRLR cells (human, UniProt P16471 25-622)
# T3 sequence: T2 sequence
# Experiment: FACS on HEK293/hPRLR cells
row,Binder,FACS Cell Binding (Fold Above Background) [fold]
1,B1,1
2,B2,38
3,B3,1
4,B4,37
5,B5,37
6,B6,32
7,B7,37
8,B8,35
9,B9,37

# Target: T2, human PRLR on cells (endogenous on …)
# Experiment: imaging of alexa488 intensity on T47D cells
# Method: Briefly, 20,000 T47D cells were seeded in collagen coated 96 well plates. […] Cells were then incubated with alexa488 conjugated anti-hFc Fab secondary antibodies for 30 minutes on ice followed by two additional PBS washes. Antibodies were allowed to internalize for 1 h at 37° C. in internalization buffer (PBS+2% FBS) or remained at 4° C. Cells were fixed in 4% formaldehyde, nuclei were stained with DRAQ5 (Cell signaling), and images were acquired on the ImageXpress micro XL (Molecular Devices). Whole cell alexa488 intensity at 37° C. (Binding) and the alexa488 intensity in the intracellular vesicles at 37° C. (Internalization) were determined via Columbus image analysis software (PerkinElmer).
row,Binder,% Total Binding relative to Control I [%]
1,B1,123
2,B2,159
3,B3,174
4,B4,166
5,B5,111
6,B6,153
7,B7,164
8,B8,162
9,B9,166

# Target: T2, human PRLR on cells (endogenous on …)
# Experiment: FACS on T47D cells
row,Binder,FACS Cell Binding (Fold Above Background) [fold]
1,B1,34
2,B2,41
3,B3,39
4,B4,40
5,B5,37
6,B6,34
7,B7,40
8,B8,37
9,B9,38

# Target: T4, mouse PRLR construct with an HA tag on HEK293/mPRLR cells (mouse, UniProt Q08501 20-608)
# T4 construct: whole, on cells; stably transfected into HEK293
# T4 sequence (looked up): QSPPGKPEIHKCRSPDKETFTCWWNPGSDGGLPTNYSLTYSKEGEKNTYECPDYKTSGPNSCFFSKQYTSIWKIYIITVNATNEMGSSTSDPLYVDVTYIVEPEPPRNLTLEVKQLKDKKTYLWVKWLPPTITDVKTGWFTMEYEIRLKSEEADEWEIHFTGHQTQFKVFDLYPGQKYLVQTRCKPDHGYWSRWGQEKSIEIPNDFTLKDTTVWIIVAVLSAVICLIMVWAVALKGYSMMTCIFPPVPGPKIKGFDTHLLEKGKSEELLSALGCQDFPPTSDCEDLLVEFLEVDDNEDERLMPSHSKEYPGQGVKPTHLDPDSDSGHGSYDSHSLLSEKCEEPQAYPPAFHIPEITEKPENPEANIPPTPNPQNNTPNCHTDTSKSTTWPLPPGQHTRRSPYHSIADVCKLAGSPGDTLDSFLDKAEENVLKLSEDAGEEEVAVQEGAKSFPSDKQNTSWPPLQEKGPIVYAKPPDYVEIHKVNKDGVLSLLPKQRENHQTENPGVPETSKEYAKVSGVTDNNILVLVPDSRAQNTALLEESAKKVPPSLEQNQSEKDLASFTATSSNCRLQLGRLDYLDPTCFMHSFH
# Experiment: FACS on HEK293/mPRLR cells
row,Binder,FACS Cell Binding (Fold Above Background) [fold]
1,B1,1
2,B2,2
3,B3,1
4,B4,1
5,B5,3
6,B6,2
7,B7,2
8,B8,1
9,B9,1
